Data on 1 molecule can be found in patent publication US20050025760A1 (KEIO UNIVERSITY, published 2005).

Substitutions are numbered along the chain they refer to.

One test has as its target T1, Dsg3-M6 (human, UniProt P32926 50-615, A83S; Q84M).
T1 construct: extracellular domain; also called point-mutated human Dsg3 molecule M6; not shown: His tag of vector pEVmod-His
T1 sequence (looked up): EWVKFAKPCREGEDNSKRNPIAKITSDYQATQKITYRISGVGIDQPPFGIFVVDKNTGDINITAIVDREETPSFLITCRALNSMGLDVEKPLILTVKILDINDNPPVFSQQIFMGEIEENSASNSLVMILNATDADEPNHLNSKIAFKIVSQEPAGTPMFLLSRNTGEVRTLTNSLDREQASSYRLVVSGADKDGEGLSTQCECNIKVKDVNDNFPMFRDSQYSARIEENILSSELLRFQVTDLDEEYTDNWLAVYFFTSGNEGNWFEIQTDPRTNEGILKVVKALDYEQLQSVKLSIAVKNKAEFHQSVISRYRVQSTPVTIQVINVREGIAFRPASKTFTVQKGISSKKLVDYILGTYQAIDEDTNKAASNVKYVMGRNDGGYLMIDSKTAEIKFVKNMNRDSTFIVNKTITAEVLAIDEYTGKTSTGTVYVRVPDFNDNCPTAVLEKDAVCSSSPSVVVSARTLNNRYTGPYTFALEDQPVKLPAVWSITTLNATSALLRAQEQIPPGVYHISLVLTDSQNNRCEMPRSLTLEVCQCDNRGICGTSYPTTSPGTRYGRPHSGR
Nature of the test: immunoprecipitation of point-mutated molecules (FIG. 5).

The target of the next test is T2, Dsg1-M7 (human, UniProt Q02413 50-545, I3V; A7K; A8P).
T2 construct: extracellular domain; also called hDsg1-M7
T2 sequence (looked up): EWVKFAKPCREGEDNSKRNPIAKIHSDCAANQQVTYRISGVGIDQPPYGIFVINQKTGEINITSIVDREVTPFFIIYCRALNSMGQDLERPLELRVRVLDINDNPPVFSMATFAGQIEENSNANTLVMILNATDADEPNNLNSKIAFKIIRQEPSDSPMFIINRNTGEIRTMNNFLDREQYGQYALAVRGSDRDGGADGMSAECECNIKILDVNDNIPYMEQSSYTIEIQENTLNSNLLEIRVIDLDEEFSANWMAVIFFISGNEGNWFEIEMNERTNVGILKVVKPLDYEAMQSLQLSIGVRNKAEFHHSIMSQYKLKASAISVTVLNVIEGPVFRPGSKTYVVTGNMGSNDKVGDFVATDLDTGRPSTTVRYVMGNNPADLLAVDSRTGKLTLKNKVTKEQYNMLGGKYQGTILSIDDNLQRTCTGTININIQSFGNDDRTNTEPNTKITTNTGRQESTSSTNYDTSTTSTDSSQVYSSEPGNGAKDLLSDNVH
The test is described as above.

A further test concerns the target T3, Dsg3-M1 (human, UniProt P32926 50-615, T25H; Y28C; Q29A).
T3 construct: extracellular domain; Dsg3-specific residues changed to the Dsg1-specific ones; also called point-mutated human Dsg3 molecule M1; not shown: His tag of vector pEVmod-His
T3 sequence (looked up): T1 sequence (looked up) with T25H, Y28C, Q29A, S83A, M84Q
Described as above.

The target of test [1] is T4, recombinant protein human Dsg1-His (human, UniProt Q02413 50-548).
T4 construct: extracellular domain; Baculovirus product; not shown: C-terminal His tag
T4 sequence (looked up): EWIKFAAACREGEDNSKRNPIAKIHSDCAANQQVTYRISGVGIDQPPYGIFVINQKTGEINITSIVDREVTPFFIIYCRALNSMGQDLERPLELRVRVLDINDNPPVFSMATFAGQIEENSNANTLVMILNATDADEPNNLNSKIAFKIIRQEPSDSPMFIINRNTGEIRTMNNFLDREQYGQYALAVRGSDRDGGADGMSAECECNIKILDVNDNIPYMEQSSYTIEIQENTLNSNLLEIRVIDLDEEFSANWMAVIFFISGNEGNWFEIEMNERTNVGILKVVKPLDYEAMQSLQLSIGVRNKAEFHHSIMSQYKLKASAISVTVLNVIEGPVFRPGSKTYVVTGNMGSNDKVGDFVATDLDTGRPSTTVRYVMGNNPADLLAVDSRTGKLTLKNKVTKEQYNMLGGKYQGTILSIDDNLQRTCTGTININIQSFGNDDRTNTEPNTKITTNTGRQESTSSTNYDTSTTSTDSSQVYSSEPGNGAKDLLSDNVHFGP
As to the kind of experiment: ELISA on recombinant human Dsg1-His. The source says:
The baculovirus vectors, pEVmod-Dsg3-His and pEVmod-Dsg1-His, pEVmod-mouse Dsg3-His and pEVmod-mouse Dsg1 -His, that were constructed according to the method as described previously (J. Immunol. 159, 2010-2017, 1997) were used. These recombinant baculoviruses were infected to insect cells, High Five (Invitrogen Corporation), then the recombinant protein human Dsg3-His and Dsg1-His, recombinant protein mouse Dsg3-His and Dsg1-His were collected from the culture media, respectively. In addition, purification of these recombinant proteins was conducted using Ni-NTA column. These purified recombinant proteins were coated on ELISA (Enzyme Linked Immunosorbent Assay) plates, respectively, 50 μl each of the culture supernatant of the anti-Dsg3 monoclonal antibody-producing hybridoma was added to each well, and ELISA was practiced according to the method as previously described (J Clin Invest 105, 625-631, 2000). PV mouse model 1 serum with moderate degree of antibody titer was selected as a positive control, and 1 serum of normal mouse serum was selected as a negative control. Absorbance was determined at wavelength 450 nm (Bio-rad, Hercules, Calif. USA), and the index was shown by the following formula. Index={OD(specimen)−OD(negative control)}/{OD(positive control)−OD(negative control)}×100 A-2 (Living Cell Staining using Culture Mouse Keratinocyte PAM 212)
(In general: In an ELISA, binding on a coated surface is turned into a signal by an enzyme label.)

B1: anti-Dsg3 monoclonal antibody AK23 (antibody, mouse IgG1, V domains shown)
VH: QVQLQQSGTELVKPGASVKLSCKSSGYTFTSYWINWVKQRPGQGLEWIGNINPSNGGINYNEKFKSKATLTVDKSSSTAYMQLKSLTSEDSAVYYCARGGYDGYPWGQGTTVTVS
VL: DIQMTQSPKFLLVSAGDRVTITCKASQSVSYDVAWYQQKPGQSPKLLISYASNRYTGVPDRFTGSGYGSDFTFTISTVQTEDLAVYFCQQDYSSPWTFGGGTKLELKR
notes: Mouse IgG1 kappa hybridoma antibody
Consider B1, for which the binding result with Dsg3-M6 is recorded as “binds”; in the test with Dsg1-M7 it was “no binding”; with Dsg3-M1, “binds”; in test [1], “no binding”.
